Reference: publication PMC8455438 (Molecular cell, 2021)
Where two headings read alike, the source gives them in different places.

T1: Recombinant IDH2 (R140Q) protein (ACTIVE MOTIF) (human, UniProt P48735 40-452, R140Q)
T1 sequence (looked up): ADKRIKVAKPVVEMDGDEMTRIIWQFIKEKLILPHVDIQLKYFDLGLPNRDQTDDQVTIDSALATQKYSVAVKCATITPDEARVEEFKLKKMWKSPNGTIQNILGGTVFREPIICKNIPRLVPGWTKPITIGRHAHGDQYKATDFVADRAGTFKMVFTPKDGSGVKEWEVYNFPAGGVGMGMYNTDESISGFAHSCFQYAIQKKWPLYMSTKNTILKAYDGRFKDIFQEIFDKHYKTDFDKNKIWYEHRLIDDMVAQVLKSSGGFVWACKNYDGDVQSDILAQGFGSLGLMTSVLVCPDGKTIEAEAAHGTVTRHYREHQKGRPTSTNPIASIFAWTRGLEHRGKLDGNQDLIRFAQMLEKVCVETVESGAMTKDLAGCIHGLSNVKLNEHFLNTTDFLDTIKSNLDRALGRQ


Assays:
native gel or EMSA [1] = biological target: the molecule itself; assay: native gel or EMSA
native gel or EMSA [2] = biological target: the molecule itself; assay: native gel or EMSA; remark: listed apart in the source
[3] = biological target: T1, Recombinant IDH2 (R140Q) protein …; assay: co-IP

Binder | stoichiometry N (native gel or EMSA [1]) | binding result [3] | other results
6xHis-IDH2 R140Q-FLAG, K413 not acetylated (pre-treated with cobB protein deacetylase, or deacetylated by rSIRT3) (enzyme, human, UniProt P48735 40-452, looked up) ADKRIKVAKPVVEMDGDEMTRIIWQFIKEKLILPHVDIQLKYFDLGLPNRDQTDDQVTIDSALATQKYSVAVKCATITPDEARVEEFKLKKMWKSPNGTIQNILGGTVFREPIICKNIPRLVPGWTKPITIGRHAHGDQYKATDFVADRAGTFKMVFTPKDGSGVKEWEVYNFPAGGVGMGMYNTDESISGFAHSCFQYAIQKKWPLYMSTKNTILKAYDGRFKDIFQEIFDKHYKTDFDKNKIWYEHRLIDDMVAQVLKSSGGFVWACKNYDGDVQSDILAQGFGSLGLMTSVLVCPDGKTIEAEAAHGTVTRHYREHQKGRPTSTNPIASIFAWTRGLEHRGKLDGNQDLIRFAQMLEKVCVETVESGAMTKDLAGCIHGLSNVKLNEHFLNTTDFLDTIKSNLDRALGRQ | 2 |  | 
6xHis-IDH2 R140Q-FLAG, K413-acetylated (by rACAT1 after cobB pre-treatment, or with intrinsic lysine acetylation obtained in bacteria) (enzyme, human, UniProt P48735 40-452, looked up, acetyl-lysine at K413 (rACAT1 acetylates mutant IDH2 at multiple lysine sites; intrinsic lysine acetylation obtained in bacteria)) ADKRIKVAKPVVEMDGDEMTRIIWQFIKEKLILPHVDIQLKYFDLGLPNRDQTDDQVTIDSALATQKYSVAVKCATITPDEARVEEFKLKKMWKSPNGTIQNILGGTVFREPIICKNIPRLVPGWTKPITIGRHAHGDQYKATDFVADRAGTFKMVFTPKDGSGVKEWEVYNFPAGGVGMGMYNTDESISGFAHSCFQYAIQKKWPLYMSTKNTILKAYDGRFKDIFQEIFDKHYKTDFDKNKIWYEHRLIDDMVAQVLKSSGGFVWACKNYDGDVQSDILAQGFGSLGLMTSVLVCPDGKTIEAEAAHGTVTRHYREHQKGRPTSTNPIASIFAWTRGLEHRGKLDGNQDLIRFAQMLEKVCVETVESGAMTKDLAGCIHGLSNVKLNEHFLNTTDFLDTIKSNLDRALGRQ |  |  | stoichiometry N (native gel or EMSA [2]): 2
6xHis-IDH2 R140Q/K413R-FLAG (acetyl-deficient) (enzyme, human, UniProt P48735 40-452, looked up) ADKRIKVAKPVVEMDGDEMTRIIWQFIKEKLILPHVDIQLKYFDLGLPNRDQTDDQVTIDSALATQKYSVAVKCATITPDEARVEEFKLKKMWKSPNGTIQNILGGTVFREPIICKNIPRLVPGWTKPITIGRHAHGDQYKATDFVADRAGTFKMVFTPKDGSGVKEWEVYNFPAGGVGMGMYNTDESISGFAHSCFQYAIQKKWPLYMSTKNTILKAYDGRFKDIFQEIFDKHYKTDFDKNKIWYEHRLIDDMVAQVLKSSGGFVWACKNYDGDVQSDILAQGFGSLGLMTSVLVCPDGKTIEAEAAHGTVTRHYREHQKGRPTSTNPIASIFAWTRGLEHRGKLDGNQDLIRFAQMLEKVCVETVESGAMTRDLAGCIHGLSNVKLNEHFLNTTDFLDTIKSNLDRALGRQ | 2 |  | 
6xHis-IDH2 R140Q/K413Q-FLAG (acetyl-mimetic) (enzyme, human, UniProt P48735 40-452, looked up) ADKRIKVAKPVVEMDGDEMTRIIWQFIKEKLILPHVDIQLKYFDLGLPNRDQTDDQVTIDSALATQKYSVAVKCATITPDEARVEEFKLKKMWKSPNGTIQNILGGTVFREPIICKNIPRLVPGWTKPITIGRHAHGDQYKATDFVADRAGTFKMVFTPKDGSGVKEWEVYNFPAGGVGMGMYNTDESISGFAHSCFQYAIQKKWPLYMSTKNTILKAYDGRFKDIFQEIFDKHYKTDFDKNKIWYEHRLIDDMVAQVLKSSGGFVWACKNYDGDVQSDILAQGFGSLGLMTSVLVCPDGKTIEAEAAHGTVTRHYREHQKGRPTSTNPIASIFAWTRGLEHRGKLDGNQDLIRFAQMLEKVCVETVESGAMTQDLAGCIHGLSNVKLNEHFLNTTDFLDTIKSNLDRALGRQ | 2 |  | 
recombinant ACAT1 (mitochondrial acetyl-coA acetyltransferase), wild type (enzyme, UniProt P24752 34-427, looked up) VSKPTLKEVVIVSATRTPIGSFLGSLSLLPATKLGSIAIQGAIEKAGIPKEEVKEAYMGNVLQGGEGQAPTRQAVLGAGLPISTPCTTINKVCASGMKAIMMASQSLMCGHQDVMVAGGMESMSNVPYVMNRGSTPYGGVKLEDLIVKDGLTDVYNKIHMGSCAENTAKKLNIARNEQDAYAINSYTRSKAAWEAGKFGNEVIPVTVTVKGQPDVVVKEDEEYKRVDFSKVPKLKTVFQKENGTVTAANASTLNDGAAALVLMTADAAKRLNVTPLARIVAFADAAVEPIDFPIAPVYAASMVLKDVGLKKEDIAMWEVNEAFSLVVLANIKMLEIDPQKVNINGGAVSLGHPIGMSGARIVGHLTHALKQGEYGLASICNGGGGASAMLIQKL |  | binds | 
recombinant ACAT1 Y407F (phosphor-deficient mutant) (enzyme, UniProt P24752 34-427, looked up) VSKPTLKEVVIVSATRTPIGSFLGSLSLLPATKLGSIAIQGAIEKAGIPKEEVKEAYMGNVLQGGEGQAPTRQAVLGAGLPISTPCTTINKVCASGMKAIMMASQSLMCGHQDVMVAGGMESMSNVPYVMNRGSTPYGGVKLEDLIVKDGLTDVYNKIHMGSCAENTAKKLNIARNEQDAYAINSYTRSKAAWEAGKFGNEVIPVTVTVKGQPDVVVKEDEEYKRVDFSKVPKLKTVFQKENGTVTAANASTLNDGAAALVLMTADAAKRLNVTPLARIVAFADAAVEPIDFPIAPVYAASMVLKDVGLKKEDIAMWEVNEAFSLVVLANIKMLEIDPQKVNINGGAVSLGHPIGMSGARIVGHLTHALKQGEFGLASICNGGGGASAMLIQKL |  | binds | 
recombinant ACAT1 treated with rFLT3 (Y407-phosphorylated) (enzyme, UniProt P24752 34-427, looked up, phosphotyrosine at Y407 (by rFLT3)) VSKPTLKEVVIVSATRTPIGSFLGSLSLLPATKLGSIAIQGAIEKAGIPKEEVKEAYMGNVLQGGEGQAPTRQAVLGAGLPISTPCTTINKVCASGMKAIMMASQSLMCGHQDVMVAGGMESMSNVPYVMNRGSTPYGGVKLEDLIVKDGLTDVYNKIHMGSCAENTAKKLNIARNEQDAYAINSYTRSKAAWEAGKFGNEVIPVTVTVKGQPDVVVKEDEEYKRVDFSKVPKLKTVFQKENGTVTAANASTLNDGAAALVLMTADAAKRLNVTPLARIVAFADAAVEPIDFPIAPVYAASMVLKDVGLKKEDIAMWEVNEAFSLVVLANIKMLEIDPQKVNINGGAVSLGHPIGMSGARIVGHLTHALKQGEYGLASICNGGGGASAMLIQKL |  | binds | 
